Data set [1] concerns HeLa Kyoto. The data set is described as follows: melting temperature (median over replicates), in situ; higher = more thermally stable.
The subject of data set [2] is HeLa Kyoto. The data set is described as follows: solubility change mitosis vs G1/S (difference of NP-40 vs SDS log2 ratios) (log2 ratio difference); higher = more soluble in mitosis.
Data set [3] deals with HeLa Kyoto. The data set is described as follows: thermal stability score vs G1/S (z-score of summed log2 fold changes over temperatures); higher = more thermally stable than in G1/S.
Data set [4] concerns HeLa Kyoto. The data set is described as follows: solubility in G1/S (NP-40 vs SDS abundance) (log2 ratio); higher = more soluble. Particulars: cell cycle stage: G1/S.
The mark [5] stands for this setting: cell cycle stage: early G1 (4.5 h after nocodazole release).
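For melting temperature (median over replicates), in situ in this document: HeLa Kyoto cells synchronized by double thymidine or nocodazole block, proteins quantified by TMT10plex mass spectrometry, three independent biological replicates.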
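For solubility change mitosis vs G1/S (difference of NP-40 vs SDS log2 ratios) in this document: synchronized HeLa Kyoto cells (double thymidine block for G1/S, nocodazole release for mitosis), protein amounts in NP-40 versus SDS lysates quantified by mass spectrometry, three biological replicates.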
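For solubility in G1/S (NP-40 vs SDS abundance) in this document: HeLa Kyoto cells arrested at G1/S by double thymidine block, proteins quantified by TMT10plex mass spectrometry in mild NP-40 versus SDS extracts, three biological replicates.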
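For thermal stability score vs G1/S (z-score of summed log2 fold changes over temperatures) in this document: synchronized HeLa Kyoto cells, proteins quantified by TMT10plex mass spectrometry, three biological replicates, mitosis taken 0.5 h after nocodazole release, G1/S directly after double thymidine block.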

As for “MRGPPAWPLRLLEPPSPAEPGRLLPVACVWAAASRVPGSLSPFTGLRPARLWGAGPALLWGVGAARRWRSGCRGGGPGASRGVLGLARLLGLWARGPGSCRCGAFAGPGAPRLPRARFPGGPAAAAWAGDEAWRRGPAAPPGDKGRLRPAAAGLPEARKLLGLAYPERRRLAAAVGFLTMSSVISMSAPFFLGKIIDVIYTNPTVDYSDNLTRLCLGLSAVFLCGAAANAIRVYLMQTSGQRIVNRLRTSLFSSILRQEVAFFDKTRTGELINRLSSDTALLGRSVTENLSDGLRAGAQASVGISMMFFVSPNLATFVLSVVPPVSIIAVIYGRYLRKLTKVTQDSLAQATQLAEERIGNVRTVRAFGKEMTEIEKYASKVDHVMQLARKEAFARAGFFGATGLSGNLIVLSVLYKGGLLMGSAHMTVGELSSFLMYAFWVGISIGGLSSFYSELMKGLGAGGRLWELLEREPKLPFNEGVILNEKSFQGALEFKNVHFAYPARPEVPIFQDFSLSIPSGSVTALVGPSGSGKSTVLSLLLRLYDPASGTISLDGHDIRQLNPVWLRSKIGTVSQEPILFSCSIAENIAYGADDPSSVTAEEIQRVAEVANAVAFIRNFPQGFNTVVGEKGVLLSGGQKQRIAIARALLKNPKILLLDEATSALDAENEYLVQEALDRLMDGRTVLVIAHRLSTIKNANMVAVLDQGKITEYGKHEELLSKPNGIYRKLMNKQSFISA [ABCB10]”, the melting temperature in data set [1] (cell cycle stage: G1/S) stood at 53.8 °C; in data set [1] (cell cycle stage: mitosis) it was 54 °C. In data set [2], the “solubility change mitosis (log2)” value was -0.029. For the same substance, the thermal stability score is 0.476 in data set [3] (setting [5]) and -0.874 in data set [3] (cell cycle stage: mitosis). Further, the “solubility in G1/S (log2)” value in data set [4] is -0.0973.
Turning to “MPSTNRAGSLKDPEIAELFFKEDPEKLFTDLREIGHGSFGAVYFARDVRTNEVVAIKKMSYSGKQSTEKWQDIIKEVKFLQRIKHPNSIEYKGCYLREHTAWLVMEYCLGSASDLLEVHKKPLQEVEIAAITHGALQGLAYLHSHTMIHRDIKAGNILLTEPGQVKLADFGSASMASPANSFVGTPYWMAPEVILAMDEGQYDGKVDVWSLGITCIELAERKPPLFNMNAMSALYHIAQNESPTLQSNEWSDYFRNFVDSCLQKIPQDRPTSEELLKHIFVLRERPETVLIDLIQRTKDAVRELDNLQYRKMKKLLFQEAHNGPAVEAQEEEEEQDHGVGRTGTVNSVGSNQSIPSMSISASSQSSSVNSLPDVSDDKSELDMMEGDHTVMSNSSVIHLKPEEENYREEGDPRTRASDPQSPPQVSRHKSHYRNREHFATIRTASLVTRQMQEHEQDSELREQMSGYKRMRRQHQKQLMTLENKLKAEMDEHRLRLDKDLETQRNNFAAEMEKLIKKHQAAMEKEAKVMSNEEKKFQQHIQAQQKKELNSFLESQKREYKLRKEQLKEELNENQSTPKKEKQEWLSKQKENIQHFQAEEEANLLRRQRQYLELECRRFKRRMLLGRHNLEQDLVREELNKRQTQKDLEHAMLLRQHESMQELEFRHLNTIQKMRCELIRLQHQTELTNQLEYNKRRERELRRKHVMEVRQQPKSLKSKELQIKKQFQDTCKIQTRQYKALRNHLLETTPKSEHKAVLKRLKEEQTRKLAILAEQYDHSINEMLSTQALRLDEAQEAECQVLKMQLQQELELLNAYQSKIKMQAEAQHDRELRELEQRVSLRRALLEQKIEEEMLALQNERTERIRSLLERQAREIEAFDSESMRLGFSNMVLSNLSPEAFSHSYPGASGWSHNPTGGPGPHWGHPMGGPPQAWGHPMQGGPQPWGHPSGPMQGVPRGSSMGVRNSPQALRRTASGGRTEQGMSRSTSVTSQISNGSHMSYT [TAOK1]”, the melting temperature in data set [1] (cell cycle stage: G1/S) was determined as 51.7 °C; in data set [1] (cell cycle stage: mitosis), 50.8 °C. Further, the “solubility change mitosis (log2)” value in data set [2] was -0.0943. Further, the thermal stability score is 0.109 in data set [3] (setting [5]) and -0.35 in data set [3] (cell cycle stage: mitosis). The “solubility in G1/S (log2)” value in data set [4] is 0.0325.
As for “MVFLPLKWSLATMSFLLSSLLALLTVSTPSWCQSTEASPKRSDGTPFPWNKIRLPEYVIPVHYDLLIHANLTTLTFWGTTKVEITASQPTSTIILHSHHLQISRATLRKGAGERLSEEPLQVLEHPRQEQIALLAPEPLLVGLPYTVVIHYAGNLSETFHGFYKSTYRTKEGELRILASTQFEPTAARMAFPCFDEPAFKASFSIKIRREPRHLAISNMPLVKSVTVAEGLIEDHFDVTVKMSTYLVAFIISDFESVSKITKSGVKVSVYAVPDKINQADYALDAAVTLLEFYEDYFSIPYPLPKQDLAAIPDFQSGAMENWGLTTYRESALLFDAEKSSASSKLGITMTVAHELAHQWFGNLVTMEWWNDLWLNEGFAKFMEFVSVSVTHPELKVGDYFFGKCFDAMEVDALNSSHPVSTPVENPAQIREMFDDVSYDKGACILNMLREYLSADAFKSGIVQYLQKHSYKNTKNEDLWDSMASICPTDGVKGMDGFCSRSQHSSSSSHWHQEGVDVKTMMNTWTLQKGFPLITITVRGRNVHMKQEHYMKGSDGAPDTGYLWHVPLTFITSKSDMVHRFLLKTKTDVLILPEEVEWIKFNVGMNGYYIVHYEDDGWDSLTGLLKGTHTAVSSNDRASLINNAFQLVSIGKLSIEKALDLSLYLKHETEIMPVFQGLNELIPMYKLMEKRDMNEVETQFKAFLIRLLRDLIDKQTWTDEGSVSERMLRSQLLLLACVHNYQPCVQRAEGYFRKWKESNGNLSLPVDVTLAVFAVGAQSTEGWDFLYSKYQFSLSSTEKSQIEFALCRTQNKEKLQWLLDESFKGDKIKTQEFPQILTLIGRNPVGYPLAWQFLRKNWNKLVQKFELGSSSIAHMVMGTTNQFSTRTRLEEVKGFFSSLKENGSQLRCVQQTIETIEENIGWMDKNFDKIRVWLQSEKLERM [ERAP1]”, the melting temperature is 53.9 °C in data set [1] (cell cycle stage: G1/S) and 54.4 °C in data set [1] (cell cycle stage: mitosis). The “solubility change mitosis (log2)” value in data set [2] is -0.172. The thermal stability score in data set [3] (setting [5]) is 3.59; in data set [3] (cell cycle stage: mitosis), 5.54. The “solubility in G1/S (log2)” value in data set [4] stood at 0.0916.
Regarding ITPR3, the results for the melting temperature in data set [1] (cell cycle stage: G1/S) and in data set [1] (cell cycle stage: mitosis) were 48.6 °C and 50.1 °C, respectively. For the same substance, in data set [2], the “solubility change mitosis (log2)” value worked out at 0.0432. Also, the thermal stability score was 0.858 in data set [3] (setting [5]) and 2.41 in data set [3] (cell cycle stage: mitosis). Further, the “solubility in G1/S (log2)” value in data set [4] was -0.508.

Source of the values: the supplement of paper PMC5998384.
